# Test results: patent US9744220B2, “Compositions and methods for treating inflammatory diseases” (priority 2013, dated 2017)
# B1: sPDNF: N-terminal short-form of T cruzi PDNF that contains Trk-binding sites, recombinant; amino acids 1-588 of SEQ ID NO: 2; JR-100 is the commercial name (protein, listed as Trypanosoma cruzi)
# chain: MGKTVVVASRMFWLMFFVPLLLAICPSEPAYALAPGSSRVELFKRKNSTVPFEDKAGKVTERVVHSFRLPALVNVDGVMVAIADARYDTSNDNSLIDTVAKYSVDDGETWETQIAIKNSRVSSVSRVVDPTVIVKGNKLYVLVGSYYSSRSYWSSHGDARDWDILLAVGEVTKSTAGGKITASIKWGSPVSLKKFFPAEMEGMHTNQFLGGAGVAIVASNGNLVYPVQVTNKKKQVFSKIFYSEDDGKTWKFGKGRSDFGCSEPVALEWEGKLIINTRVDWKRRLVYESSDMEKPWVEAVGTVSRVWGPSPKSNQPGSQSSFTAVTIEGMRVMLFTHPLNFKGRWLRDRLNLWLTDNQRIYNVGQVSIGDENSAYSSVLYKDDKLYCLHEINTDEVYSLVFARLVGELRIIKSVLRSWKNWDSHLSSICTPADPAASSSESGCGPAVTTVGLVGFLSGNASQNVWEDAYRCVNASTANAERVRNGLKFAGVGGGALWPVSQQGQNQRYRFANHAFTLVASVTIHEAPRAASPLLGASLDSSGGKKLLGLSYDEKHQWQPIYGSTPVTPTGSWETGKRYHLVLTMANKI
# Tested on: cardiac fibroblasts
# Assay: sPDNF stimulation of primary cardiac fibroblasts, chemokine transcripts by qPCR
# Assay type: cell-based, mouse
# Details: 3 hr, dose-dependent
# Description: FIG. 7A is a graph depicting MCP-1 and FKN expression in cardiomyocytes of mice infected with T cruzi. FIG. 7B is a graph depicting MCP-1 and FKN expression in cardiac fibroblasts of mice infected with T cruzi. T cruzi infection: Primary cultures of mouse cardiomyocytes (FIG. 7A) and cardiac fibroblasts (FIG. 7B) were plated in 6-well plates, infected with T cruzi Tulahuen strain (MOI=10) for 3, 24, and 72 hr, and MCP-1 and FKN transcripts were quantified by qPCR. Chemokine gene expression was normalized to HPRT and fold change calculated relative to uninfected cells. Points represent mean±SD fold change expression of triplicate samples. The experiment was repeated, and similar results were obtained. FIG. 7C is a graph depicting MCP-1 and FKN expression in cardiomyocytes of mice injected with sPDNF. FIG. 7D is a graph depicting MCP-1 and FKN expression in cardiac fibroblasts of mice injected with sPDNF. sPDNF stimulation: Primary cardiomyocytes (FIG. 7C) and cardiac fibroblasts (FIG. 7D) were plated in 6-well plates, serum starved overnight, then stimulated with the indicated concentration of sPDNF (3 hr), and MCP-1 and FKN transcripts were quantified by qPCR. Chemokine gene expression was normalized to HPRT and fold change calculated relative to vehicle-treated cells; *P<0.05, **P<0.01, and ***P<0.005. […]
molecule,measurement,value
B1,FKN transcripts,increase
same,MCP-1 transcripts,increase
